Measurements taken from US20260250737A1, “Engineered Luciferases and Luciferin Substrates” (Monod Bio, Inc., priority 2023, published 2026).

Tested on: SmLux
Test: Computationally generated LgLux variants expressed in E. coli, tested in lysates with SmLux and substrate 1c
Type: biochemical
Details: 50 uM substrate 1c; for Fold change upon SmLux peptide addition: 20 uM SmLux; for Baseline Signal (Normalized by expression): before SmLux peptide addition
Procedure: LgLux sequences were designed computationally, and their activity measured as depicted schematically in FIG. 45.
A library of the computationally generated LgLux variants were expressed in E. coli and tested in lysates. 20 uM of SmLux and 50 uM of substrate 1c was used for the screening.
LgLux_4039 sequence is as set forth in SEQ ID NO:2773. MBIO-5103 through MBIO-5124, MBIO-5261 through MBIO-5295, MBIO-5101, and MBIO-5102 (SEQ ID NO:2815-SEQ ID NO:2873, respectively) are computationally generated LgLux. The sequences and activity of these LgLux are shown below in Table 21.
MBIO-5358 and MBIO-5360 through MBIO-5381 (SEQ ID NO:2774-SEQ ID NO:2796, respectively) are computationally generated LgLux.

| Molecule | Fold change upon SmLux peptide addition | Baseline Signal (Normalized by expression) |
| --- | --- | --- |
| 5283 (protein) MTPEEIRANVERFYAALASGDLETAKALFDPGVTITLWDGTTFTSVEEFRKWFEEQFETSKDALREIVSMEVEGDTVRVLVRLTFVRNGEEKVVDLLQLFKFV | 1.14 | 141.4 |
| 5264 (protein) MTPEEIRANVEAFYAALASGDWEAARALFDPGVTITLWDGTTFTSVEEFRAWFEEQFKTSKDALREIVDLEVEGDVVRVLVRLTFVRDGKEEVVDLLQLFKFV | 1.26 | 127.6 |
| 5281 (protein) MTPEEIRANVEAFYAALASGDLEAAKSLFDPGVTITLWDGTTFTSVEEFRKWFEEQFKTSKDALREIVSMEIEGDTVRVLVRLTFVRDGKVEEVDLLQLFKFV | 3.02 | 125.6 |
| 5285 (protein) MTPEEIRANVERFYAALASGDWATAEALFDPGVTITLWDGTTFTSVAEFRAWFEEQFKTSKDALREIVSLEINGDVVRVLVRLTFTRDGKEEVVDLLQLFKFV | 1.26 | 188 |
| 5270 (protein) MTPEAIIANVKAFYAALASGDWAAARALFDPGVTITLWDGTTFTSVEEFRAWFEAQFETSKDALREIVSMEVEGDTVRVLVRLTFVRNGKEEVVDLLQLFKFV | 1.25 | 135.2 |
| 5273 (protein) MTPEAIRENVRAFYAALASGDWEAAKALFDPGVTITLWDGTTFTSVEEFRAWFEKQFKTSKDALREIVSLEVEGDVVRVLVRLTFVRDGKEEVVDLLQLFKFV | 1.01 | 140.4 |
| 5269 (protein) MTPEEIRENVRAFYAALASGDLAAAKALFDPGVTITLWDGTTFTSVEEFRAWFEKQFKTSKDALREIVSLEVEGDTVRVLVRLTFVRDGKEEVVDLLQLFKFV | 1.1 | 137.2 |
| 5278 (protein) MTPEAIRENVEAFYAALASGDWEAAKALFDPGVTITLWDGTTFTSVEEFRAWFEEQFQTSKDALREIVSMRIEGDTVRVLVRLTFTRDGETQVVDLLQLFKFV | 1.61 | 121.2 |
| 5268 (protein) MTPEEIRENVRRFYAALASGDLEAAKSLFDPGVTITLWDGTTFTSVEEFRAWFEEQFQTSKDALREIVSLEVEGDVVRVLVRLTFVRDGEVQEVDLLQLFKFV | 1.05 | 133 |
| 5275 (protein) MTPEEIKENVLNFYAALASGDLEAAKALFDPGVTITLWDGTTFTSVEEFRAWFEKQFKTSKDALREIVSMEVEGDVVRVLVRLTFTRDGKVEEVDLLQLFKFV | 1.35 | 122.8 |
| 5103 (protein) MTPEQRIANVRAFYAALASGDLEAAKALFDPGVTITLWDGTTFTSLEEFLAWFEKQFDASKDAKREIVDIEVEGDVVRVLVRLTYTKDGKEKVVDLLQLLKFV | 0.94 | 193.2 |
| 5104 (protein) MTPEEIRANVRAFYAALASGDLAAAKALFDPGTTITLWDGTTFTSLEEFLAWFEKQFKASKDAKREIVSLEVEGDTVRVLVRLTYTVDGKEKVVDLLQLLKFV | 0.97 | 180.8 |
| 5263 (protein) MTPEEIRANVLAFYAALASGDLAAAEALFDPGVTITLWDGTTFTSVAEFRAWFEAQFQTSKDALREIVDMRVEGDVVRVLVRLTFVRDGEEQVVDLLQLFKFV | 1.38 | 137.4 |
| 5277 (protein) MTPEEIRANVRAFYAALASGDLEAAKALFDPGVTITLWDGTTFTSVEEFRKWFEEQFKTSKDALREIVEMRIEGDVVRVLVRLTFVRDGKEQVVDLLQLFKFV | 1.19 | 120.6 |
| 5272 (protein) MTPEERIANVRAFYAALASGDWAAAEALFDPGVTITLWDGTTFTSVAEFRAWFEQQFQTSKDALREILDIEVEGDVVRVLVRLTFVRDGKEQVVDLLQLFKFV | 11.86 | 141.4 |
| 5265 (protein) MTPEQIRANVRAFYAALASGDWAAAEALFDPGVTITLWDGTTFTSVAEFRAWFEEQFKTSKDALREIVSMEVEGDTVRVLVRLTFVRDGEEKVVDLLQLFKFV | 2.8 | 126.4 |
| 5261 (protein) MTPEEIRANVRAFYAALASGDLAAARALFDPGVTITLWDGTTFTSVEEFRAWFEEQFQTSKDALREIESIEVEGDTVRVLVRLTFTRDGVTQEVDLLQLFKFV | 2.16 | 176.8 |
| 5262 (protein) MTPEERIENVRAFYAALASGDWAAARALFDPGVTITLWDGTTFTSVEEFRAWFEKQFKTSKDALREIESIEVEGDTVRVLVRLTFTRDGKEEEVDLLQLFKFV | 2.29 | 139.6 |
| 5284 (protein) MTPEERFANVRAFYEALASGDLEAAKALFDPGVTITLWDGTTFTSVEEFRAWFEEQFQTSKDALREIVDMEVEGDTVRVLVRLTFTRNGETQEVDLLQLFKFV | 5.16 | 186.8 |
| 5282 (protein) MTPEEIIANVRAFYAALASGDLEAAKALFDPGVTITLWDGTTFTSVEEFRAWFEQQFQTSKDALREIVSIEVEGDVVRVLVRLTFVRDGEEQVVDLLQLFKFV | 1.18 | 131.8 |
| 5266 (protein) MTPEEIRANVRAFYAALASGDLAAAKALFDPGVTITLWDGTTFTSVEEFRAWFEEQFQTSKDALREIVSLRVEGDTVRVLVRLTFTRDGKVQEVDLLQLFKFV | 1.09 | 129.8 |
| 5271 (protein) MTPEEIRENVRNFYAALASGDLEAAKALFDPGVTITLWDGTTFTSVEEFRAWFEEQFKTSKDALREIVSMEIEGDTVRVLVRLTFTRDGVEQVVDLLQLFKFV | 10.11 | 145 |
| 5280 (protein) MTPEEIRANVRAFYAALASGDWEAARALFDPGVTITLWDGTTFTSVEEFRAWFEKQFQTSKDALREIVALEVEGDVVRVLVRLTFVRDGVEQEVDLLQLFKFV | 1.07 | 129.2 |
| 5279 (protein) MTPEEIRENVRAFYAALASGDLAAAKALFDPGVTITLWDGTTFTSVEEFRAWFEEQFQTSKDALREIVSLEIEGDVVRVLVRLTFTRNGETQVVDLLQLFKFV | 1.12 | 111.8 |
| 5276 (protein) MTDEEIRANVRAFYAALASGDLEAAKALFDPGVTITLWDGTTFTSVEEFRAWFEKQFKTSKDALREIESLEVEGDTVRVLVRLTFVRDGKEQVVDLLQLFKFV | 6.45 | 125.6 |
| 5274 (protein) MTPEEIRANVRAFYAALASGDWAAAEALFDPGVTITLWDGTTFTSVAEFRAWFEAQFQTSKDALREIVSLEVEGDVVRVLVRLTFVRDGRTEEVDLLQLFKFV | 1.07 | 125.2 |
| 5267 (protein) MTPEEILANVRAFYAALASGDLAAAKALFDPGVTITLWDGTTFTSVEEFRAWFEEQFKTSKDALREIVSAEVEGDTVRVLVRLTFTRDGKVEEVDLLQLFKFV | 1.42 | 130.6 |
| 5286 (protein) MTPEERIANVRAFYAALASGDLEAAKALFDPGVTITLWDGTTFTSVEEFRAWFEEQFKTSKDALREIESIEVDGDTVRVLVRLTFVRDGEEKVVDLLQLFKFV | 33.33 | 196 |
